Laboratory results published in paper PMC4428678.

Biological target: His-tagged human CRMP-2 (residues 1-490) (human) (UniProt Q16555)
Assay: SPR

Kd: 75 µM
Substance: Recombinant human calmodulin (from UniProt P0DP23 1-149) (natural protein)
